Measured values as given in article PMC7264293, “Multi-site-mediated entwining of the linear WIR-motif around WIPI β-propellers for autophagy” (Nature Communications, 2020).

Columns and labels:
Experiment in all cases: ITC; WIPI3 proteins in the sample cell, GB1-tagged ATG2A fragments in the syringe; 25 °C; 50 mM Tris-HCl pH 8.0, 100 mM NaCl, 1 mM EDTA, 1 mM DTT; model of one binding site
Settings in all cases: both partners purified
[1] = target: T1, WIPI3 (full-length, wild-type) (human, UniProt Q5MNZ6 1-344)
T1 construct: human WIPI3, full length; also called wild-type WIPI3; full-length WIPI3; source: E. coli BL21(DE3), purified (Ni2+-Sepharose, size-exclusion chromatography)

[2] = target: T2, WIPI3-Δloop (human, UniProt Q5MNZ6 1-344, Blade 2 B-C loop (75-80) deleted | Blade 6 C-D loop (264-281) deleted)
T2 construct: human WIPI3 with deletions of the Blade 2 B-C loop (75-80) and the Blade 6 C-D loop (264-281); also called loop-deletion mutant of WIPI3; source: E. coli BL21(DE3), purified (Ni2+-Sepharose, size-exclusion chromatography)

[3] = target: Hsv2 (yeast, UniProt P50079 1-448)
Sequence of Hsv2 (P50079 whole entry): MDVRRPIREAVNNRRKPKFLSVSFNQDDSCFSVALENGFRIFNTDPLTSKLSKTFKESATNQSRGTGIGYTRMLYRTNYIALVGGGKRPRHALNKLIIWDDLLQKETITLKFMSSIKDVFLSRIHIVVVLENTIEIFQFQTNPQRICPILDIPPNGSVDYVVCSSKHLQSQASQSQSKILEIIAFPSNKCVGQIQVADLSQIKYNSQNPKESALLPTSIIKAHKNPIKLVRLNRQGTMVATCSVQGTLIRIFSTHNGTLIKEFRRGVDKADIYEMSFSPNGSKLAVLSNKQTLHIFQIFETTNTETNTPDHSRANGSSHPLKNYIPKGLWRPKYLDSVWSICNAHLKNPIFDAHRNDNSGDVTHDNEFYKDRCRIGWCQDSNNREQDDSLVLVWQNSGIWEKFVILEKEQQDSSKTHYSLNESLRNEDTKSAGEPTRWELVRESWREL

T2 sequence (Q5MNZ6 other isoform, or with tags, fused parts or gaps with the stated changes): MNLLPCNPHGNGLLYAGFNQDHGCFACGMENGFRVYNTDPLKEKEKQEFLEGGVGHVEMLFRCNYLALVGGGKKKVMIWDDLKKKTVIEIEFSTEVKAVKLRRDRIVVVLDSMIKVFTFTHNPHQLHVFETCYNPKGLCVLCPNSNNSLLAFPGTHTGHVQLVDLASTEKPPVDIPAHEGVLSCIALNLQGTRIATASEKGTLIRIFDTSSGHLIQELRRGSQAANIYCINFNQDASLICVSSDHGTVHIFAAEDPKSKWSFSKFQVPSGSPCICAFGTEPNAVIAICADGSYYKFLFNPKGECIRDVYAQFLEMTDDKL
T1 sequence (Q5MNZ6 whole entry): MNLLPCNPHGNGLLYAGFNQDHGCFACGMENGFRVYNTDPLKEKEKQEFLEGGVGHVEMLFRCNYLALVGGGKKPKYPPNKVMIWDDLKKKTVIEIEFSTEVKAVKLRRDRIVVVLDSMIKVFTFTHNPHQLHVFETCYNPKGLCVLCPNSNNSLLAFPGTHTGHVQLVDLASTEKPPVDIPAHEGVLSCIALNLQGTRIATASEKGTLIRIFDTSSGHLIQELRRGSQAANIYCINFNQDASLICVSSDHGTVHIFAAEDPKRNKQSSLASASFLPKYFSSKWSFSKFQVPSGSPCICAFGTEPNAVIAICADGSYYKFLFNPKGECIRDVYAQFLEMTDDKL

Binder | Kd [1] | Kd [2] | binding result [2] | further results
DSDEFCILDAPGLGIPPRDGEPVVTQLHPGPIVVRDGYFSRPIGSTD (domain or fragment, human, UniProt Q2TAZ0 1358-1404, looked up, human ATG2A residues 1358-1404; source: E. coli BL21(DE3), purified (Ni2+-Sepharose, size-exclusion chromatography), tag not cleaved) [GB1-tagged ATG2A long fragment (1358-1404)] | 8.6 ± 0.1 µM | 6.3 ± 0.2 µM | – | –
PRDGEPVVTQLHPGPIVVRDGYFSRPIGSTD (peptide, UniProt Q2TAZ0 1374-1404, looked up, human ATG2A residues 1374-1404; In the crystal (PDB 6KLR) the same stretch stood fused to the N-terminus of WIPI3-Δloop without the GB1 tag; source: E. coli BL21(DE3), purified (Ni2+-Sepharose, size-exclusion chromatography), tag not cleaved) [GB1-tagged ATG2A short fragment (1374-1404), the WIR-peptide] | 8.7 ± 0.1 µM | 6.4 ± 0.7 µM | – | Kd [3]: 21.5 ± 2 µM; stoichiometry N [2]: 1
PRDGEPAVTQLHPGPIVVRDGYFSRPIGSTD (peptide, UniProt Q2TAZ0 1374-1404, looked up, human ATG2A residues 1374-1404 with V1380A; source: E. coli BL21(DE3), purified (Ni2+-Sepharose, size-exclusion chromatography), tag not cleaved) [GB1-tagged WIR-peptide V1380A] | – | – | binds | –
PRDGEPVVQQLHPGPIVVRDGYFSRPIGSTD (peptide, UniProt Q2TAZ0 1374-1404, looked up, human ATG2A residues 1374-1404 with T1382Q; source: E. coli BL21(DE3), purified (Ni2+-Sepharose, size-exclusion chromatography), tag not cleaved) [GB1-tagged WIR-peptide T1382Q] | – | – | binds | –
PRDGEPVVAQLHPGPIVVRDGYFSRPIGSTD (peptide, UniProt Q2TAZ0 1374-1404, looked up, human ATG2A residues 1374-1404 with T1382A; source: E. coli BL21(DE3), purified (Ni2+-Sepharose, size-exclusion chromatography), tag not cleaved) [GB1-tagged WIR-peptide T1382A] | – | – | binds | –
PRDGEPQVTQLHPGPIVVRDGYFSRPIGSTD (peptide, UniProt Q2TAZ0 1374-1404, looked up, human ATG2A residues 1374-1404 with V1380Q; source: E. coli BL21(DE3), purified (Ni2+-Sepharose, size-exclusion chromatography), tag not cleaved) [GB1-tagged WIR-peptide V1380Q] | – | – | binds | –
